B1: Exostosin-1 (Homo sapiens), Q16394 (parent)
chain: MQAKKRYFILLSAGSCLALLFYFGGLQFRASRSHSRREEHSGRNGLHHPSPDHFWPRFPDALRPFVPWDQLENEDSSVHISPRQKRDANSSIYKGKKCRMESCFDFTLCKKNGFKVYVYPQQKGEKIAESYQNILAAIEGSRFYTSDPSQACLFVLSLDTLDRDQLSPQYVHNLRSKVQSLHLWNNGRNHLIFNLYSGTWPDYTEDVGFDIGQAMLAKASISTENFRPNFDVSIPLFSKDHPRTGGERGFLKFNTIPPLRKYMLVFKGKRYLTGIGSDTRNALYHVHNGEDVVLLTTCKHGKDWQKHKDSRCDRDNTEYEKYDYREMLHNATFCLVPRGRRLGSFRFLEALQAACVPVMLSNGWELPFSEVINWNQAAVIGDERLLLQIPSTIRSIHQDKILALRQQTQFLWEAYFSSVEKIVLTTLEIIQDRIFKHISRNSLIWNKHPGGLFVLPQYSSYLGDFPYYYANLGLKPPSKFTAVIHAVTPLVSQSQPVLKLLVAAAKSQYCAQIIVLWNCDKPLPAKHRWPATAVPVVVIEGESKVMSSRFLPYDNIITDAVLSLDEDTVLSTTEVDFAFTVWQSFPERIVGYPARSHFWDNSKERWGYTSKWTNDYSMVLTGAAIYHKYYHYLYSHYLPASLKNMVDQLANCEDILMNFLVSAVTKLPPIKVTQKKQYKETMMGQTSRASRWADPDHFAQRQSCMNTFASWFGYMPLIHSQMRLDPVLFKDQVSILRKKYRDIERL
partner: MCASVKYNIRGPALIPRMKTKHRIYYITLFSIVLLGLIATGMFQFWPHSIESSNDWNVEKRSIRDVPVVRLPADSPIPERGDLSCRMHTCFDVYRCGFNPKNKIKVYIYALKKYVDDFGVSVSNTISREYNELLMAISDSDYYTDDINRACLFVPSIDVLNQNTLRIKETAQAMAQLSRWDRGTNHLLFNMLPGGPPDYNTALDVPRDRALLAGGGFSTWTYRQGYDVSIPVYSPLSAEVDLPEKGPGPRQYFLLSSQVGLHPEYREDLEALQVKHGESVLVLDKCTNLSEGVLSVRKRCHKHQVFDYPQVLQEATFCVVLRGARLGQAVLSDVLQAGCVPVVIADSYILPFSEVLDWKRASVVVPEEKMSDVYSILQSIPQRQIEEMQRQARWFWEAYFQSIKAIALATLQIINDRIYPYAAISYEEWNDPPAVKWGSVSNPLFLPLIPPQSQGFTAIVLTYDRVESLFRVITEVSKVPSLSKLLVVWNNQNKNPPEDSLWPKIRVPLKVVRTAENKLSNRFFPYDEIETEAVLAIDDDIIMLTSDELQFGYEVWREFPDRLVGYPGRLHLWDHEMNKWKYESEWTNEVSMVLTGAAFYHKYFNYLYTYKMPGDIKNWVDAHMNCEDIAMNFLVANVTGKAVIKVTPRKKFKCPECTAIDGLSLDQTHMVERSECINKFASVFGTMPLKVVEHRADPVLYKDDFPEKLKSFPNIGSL
B2: Exostosin-2 (Homo sapiens), Q93063 (parent)
chain: B1 partner
partner: B1 chain

Variants of: B1
Details: with ext2_human EXT2, Q93063

| Variant | effect of a mutation on the interaction |
| --- | --- |
| D565N;D567N | decreasing interaction strength |
| D162N;D164N | with no effect |
| R280A | with no effect |
| R346A | with no effect |

Variants of: B2
Details: with ext1_human EXT1, Q16394

| Variant | effect of a mutation on the interaction |
| --- | --- |
| D538N;D540N | with no effect |
| R266A | with no effect |
